# From paper PMC13730216 (2026)
# B1: miniCXCR4-WRAP truncated extracellular/ligand-binding part fused to designed WRAP (protein)
# chain: MEGISIYTSDNYTEEMGSGDYDSMKEPCFREENANFNKIFLPTIYSIIFLTGIVGNGLVILVMGYQKKLRSMTDKYRLHLSVADLLFVITLPFWAVDAVANWYFGNFLCKAVHVIYTVNLYSSVLILAFISLDRYLAIVHATNSQRPRKLLAEKVVYVGVWIPALLLTIPDFIFANVSEADDRYICDRFYPNDLWVVVFQFQHIMVGLILPGIVILSCYCIIISKLSHSKGHQKRKALKTTVILILAFFACWLPYYIGISIDSFILLEIIKQGCEFENTVHKWISITEALAFFHCCLNPILYAFLGAKFKTSAQHALTS
# modifications: truncated CXCR4 with designed loops fused to WRAP; biotinylated CXCL12
# Biological target: CXCL12 (Homo sapiens, UniProt P48061)
# Experiment: BLI
# Sequence of CXCL12 (P48061 22-89): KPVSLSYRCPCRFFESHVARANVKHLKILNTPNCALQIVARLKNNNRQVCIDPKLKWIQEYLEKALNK
binder,measurement,value
B1,Kd,390 nM
